Results from paper PMC3581365 (The Journal of Biological Chemistry, 2013).

T1: HP0893 expressed as a C-terminal His tag fusion (HP0893-His) (H. pylori 26695, UniProt O25553 1-95)
T1 sequence (looked up): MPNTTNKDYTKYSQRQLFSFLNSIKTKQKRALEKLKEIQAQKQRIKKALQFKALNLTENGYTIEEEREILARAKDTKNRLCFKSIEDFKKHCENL

T2: HP0892 fused with His tag at the C terminus (HP0892-His) (H. pylori 26695, UniProt O25552 1-90)
T2 sequence: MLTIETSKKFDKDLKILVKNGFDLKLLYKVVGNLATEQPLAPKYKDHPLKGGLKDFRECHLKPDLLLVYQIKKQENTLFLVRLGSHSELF

B1: HP0892 without any purification tag or non-native residues (natural protein, H. pylori 26695, UniProt O25552 1-90, looked up)
chain: T2 sequence

How the values were obtained:
[1] = molecular target: T1, HP0893 expressed as a C-terminal His …; assay: pull-down
[2] = molecular target: T2, HP0892 fused with His tag at the C …; assay: NMR titration

Row | Binder | stoichiometry N [1] | stoichiometry N [2]
1 | B1 | 1 | –
2 | EREILARAKDTKNRLCFKSIEDFKKHCENL (peptide, UniProt O25553 66-95, looked up) [HP0893Ctp, 30-residue peptide corresponding to the C-terminal region (Glu-66 to Leu-95) of HP0893] | – | 1
